Measurements from patent US8273357B2, “Antigen-carbohydrate conjugates” (Massachusetts Institute of Technology, priority 2004, dated 2012).
“Also recorded” adds a separate entry of the source.

Experiments:
[1] = system: OTII (CD4+) T cells in unfractionated splenocytes; test: Antigen presentation assay, unfractionated OTII splenocytes, [3H]thymidine T cell proliferation; assay type: cell-based, mouse
Procedure: FIG. 2B is a graph showing that oligosaccharide modification of OVA elicits stronger presentation to OTII T cells than unmodified OVA. Unfractionated OTII splenocytes (3×10^5/well) were incubated with graded doses of OVA or oligosaccharide-modified OVA for eighty-four hours with [^3H]thymidine (1 μCi) added for the last 12 hours. Thereafter [^3H]thymidine incorporation levels were measured and plotted. FIG. 2C is a graph showing that observed enhancements in antigen presentation of (OVA)-3-1 to T cells is carbohydrate dependent. Splenocytes were incubated with antigen as in (B)±(BSA)-3-1 (10 μg mL^−1). In cases where (OVA)-3-1 was added to OVA wells to assess the possibility of direct activation of T cells (see text), (OVA)-3-1 was present at 50 ng mL^−1; incubations were performed for seventy-two hours with [^3H]thymidine (1 μCi) added for the last 12 hours. FIG. 2D is a graph showing that the receptor mediated uptake of (OVA)-3-1 has a different binding profile than that observed for DC-SIGN. Unfractionated splenocytes were incubated with OVA or (OVA)-3-1±mBSA or Lewis^x-BSA (each at 100 μg mL^−1). Incubations were performed for seventy-two hours with [^3H]thymidine (1 μCi) added for the last twelve hours. All values reported are the mean of triplicate measurements.
The ability of these conjugates to enhance antigen uptake by dendritic cells was assessed in comparison to unmodified OVA by incubating graded doses of conjugate and OVA with unfractionated splenocytes (containing T cells, B cells, dendritic cells, macrophages) isolated from OTII (CD4^+) transgenic mice. The ability of dendritic cells to present antigenic peptides derived from targeted proteins was measured as a function of T cell proliferation in response to those presented peptides. T cell proliferation is quantified by [^3H]thymidine incorporation during cellular division.
Pooled inguinal lymph nodes were dissociated in 10% Fetal Bovine Serum RPMI (supplemented with 2 mM L-glutamine) and either mechanically dissociated between two glass slides or, to improve the overall cell yield, incubated in the presence of collagenase (Boehringer) and EDTA for 25 minutes at 37° C./5% CO2 to dissociate DC-T cell clusters. For antigen presentation assays with whole splenocytes, isolated spleens were injected with collagenase/EDTA, gently teased apart and incubated as described above. Splenocytes were cultured in 96-well round-bottom plates at a density of 3×10^5 cells/0.2 mL. In antigen presentation assays utilizing purified dendritic cells and T cells, dendritic cells were isolated from the spleens of C57BL/6 mice following collagenase/EDTA treatment by labeling the dendritic cells with commercially available magnetic microbeads linked to an anti-CD11c^+ antibody (Miltenyi Biotec, Bergisch Gladbach, Germany) (according to the Miltenyi Biotec protocol) and separating labeled Dendritic cells from non-dendritic cells by application of a magnetic field. Similarly, purified […] T cells were obtained from spleens of OTII transgenic mice using magnetic beads Dynal (Oslo, Norway). Purified dendritic cells and T cells were seeded onto 96-well plates round-bottom Plates at a 1:2 DC:T cell ratio unless stated otherwise in the Figures.

IFN-γ = IFN-γ ELISA during in vitro peptide restimulation of T cells from immunized mice; assay type: in vivo, mouse; settings: 24 h; lower limit of detection approximately 0.3 ng mL^−1
Procedure: FIGS. 8A and 8B are a series of dot plots (FIG. 8A) and a graph (FIG. 8B) showing that the oligosaccharide-mediated targeting of steady state dendritic cells leads to T cell tolerance. […] 2×10^7 OTII splenocytes were adoptively transferred into B6.Ly5.2/Cr recipients and then immunized by subcutaneous injection with PBS, OVA (200 ng), (OVA)-3-1 (200 ng), (OVA)-3-1 (200 ng)+mBSA (50 μg) or OVA peptide (100 μg) in Incomplete Freund's Adjuvant. At 8 days after these initial immunizations, mice received an antigenic rechallenge of OVA peptide (100 μg) in Complete Freund's Adjuvant. On day ten mice were sacrificed and cells were isolated from the draining lymph node, total T cells were purified by negative selection and the number of OTII T cells were counted by FACS as described for FIG. 6. […] Purified T cells from each experimental group were seeded at 3×10^5 cells/well with purified […] dendritic cells (9×10^4/well) and were incubated for twenty-four hours±OVA peptide (100 μg mL^−1) with [^3H]thymidine (1 μCi) added for the last ten hours. […]
75-150 μL aliquots of supernatant were sampled from antigen presentation assays at 24, 48, and 72 hours. […] 25 μL of each supernatant were diluted 1:1 with PBS/1% BSA and analyzed in triplicate for IFN-γ, IL-10, and IL-4 using DuoSet ELISA reagents from R&D Systems. […]

[2] = system: OTI (CD8+) T cells in unfractionated splenocytes; test: Antigen presentation assay (MHC class I), unfractionated OTI splenocytes, [3H]thymidine T cell proliferation; assay type: cell-based, mouse
Procedure: FIGS. 3A and 3B are graphs showing that nonasaccharide 3-1-promoted presentation via MHC class I pathway for presentation to CD8^+ T cells. […] Unfractionated OTI splenocytes (3×10^5/well) were incubated with graded doses of OVA±(OVA)-3-1 (50 ng mL^−1) or (OVA)-3-1±(BSA)-3-1 (10 μg mL^−1). Incubations were performed for seventy-two hours with [^3H]thymidine (1 μCi) added for the last twelve hours. FIG. 3B is a graph showing that the monosaccharide mannose 3-6 targets a different receptor than 3-1. OTII splenocytes were incubated with graded doses of monosaccharide-modified OVA±(BSA)-3-1 and T cell proliferation was measured as described for FIG. 3A. Values present the mean of triplicate measurements.
Accessing the transporter of antigenic peptides (TAP) and thereby achieving cross-presentation of antigen by dendritic cells to MHC class I restricted CD8+ T cells led to efficient stimulation of these T cells and, in the steady state, their apoptotic deletion from the T cell repertoire^3. To determine if the receptor promoting (OVA)-3-1 uptake can process proteins through the MHC class I pathway, (OVA)-3-1 and OVA were incubated with unfractionated splenocytes isolated from OTI (CD8^+) mice. The T cells from transgenic OTI mice recognized an eight amino acid residue sequence (SIINFEKL (SEQ ID NO: 14)) derived from OVA and were therefore utilized to gauge the efficiency of DC presentation of MHC class I antigenic peptides. A moderate (10-fold) increase in the efficiency of MHC class I presentation with (OVA)-3-1 as compared to OVA alone was observed (FIG. 3A).
Pooled inguinal lymph nodes were dissociated in 10% Fetal Bovine Serum RPMI (supplemented with 2 mM L-glutamine) and either mechanically dissociated between two glass slides or, to improve the overall cell yield, incubated in the presence of collagenase (Boehringer) and EDTA for 25 minutes at 37° C./5% CO2 to dissociate DC-T cell clusters. For antigen presentation assays with whole splenocytes, isolated spleens were injected with collagenase/EDTA, gently teased apart and incubated as described above. […]

purified T cells = test: Addition to purified T cells in the absence of antigen-presenting cells; assay type: cell-based, mouse; settings: no antigen-presenting cells

Molecule | inhibition of uptake and presentation of (OVA)-3-1 to OTII T cells ([1]; OTII splenocytes, mBSA or Lewis^x-BSA each at 100 μg mL^−1) | IFN-γ produced during peptide stimulation in vitro (IFN-γ) | T cell response curve of OVA plus (OVA)-3-1 versus OVA alone (direct activation of T cells) ([1]; 0.05 μg mL^−1 (OVA)-3-1 added to graded doses of OVA) | enhancement of antigen uptake and presentation to T cells (T cell proliferation) compared to unmodified OVA ([1]; OTII splenocytes, graded doses) | direct activation of OTI T cells ([2]; (OVA)-3-1 50 ng mL^−1 added to OVA) | increase in the efficiency of MHC class I presentation as compared to OVA alone ([2]; OTI splenocytes) [fold] | presentation of antigenic peptides to CD8+ T cells ([2]; OTI splenocytes, graded doses) | T cell proliferation (purified T cells)
mBSA: BSA modified with approximately 25 mannose residues per protein molecule [reference compound] | Neither mBSA nor Lewis^x-BSA significantly impair; also recorded: did not significantly effect presentation | – | – | – | – | – | – | –
(OVA)-3-1: ovalbumin modified via SMCC with nonasaccharide 3-1, average of three saccharides per OVA (conjugate) GSIGAASMEFCFDVFKELKVHHANENIFYCPIAIMSALAMVYLGAKDSTRTQINKVVRFDKLPGFGDSIEAQCGTSVNVHSSLRDILNQITKPNDVYSFSLASRLYAEERYPILPEYLQCVKELYRGGLEPINFQTAADQARELINSWVESQTNGIIRNVLQPSSVDSQTAMVLVNAIVFKGLWEKAFKDEDTQAMPFRVTEQESKPVQMMYQIGLFRVASMASEKMKILELPFASGTMSMLVLLPDEVSGLEQLESIINFEKLTEWTSSNVMEERKIKVYLPRMKMEEKYNLTSVLMAMGITDVFSSSANLSGISSAESLKISQAVHAAHAEINEAGREVVGSAEAGVDAASVSEEFRADHPFLFCIKHIATNAVLFFGRCVSP | – | no detectable IFN-γ | identical | greatest enhancement | did not achieve this enhancement via direct activation of T cells | 10 | enhanced presentation | did not led to T cell proliferation
ovalbumin (protein, UniProt P01012 2-386, looked up, model antigen, unmodified) Ovalbumin: GSIGAASMEFCFDVFKELKVHHANENIFYCPIAIMSALAMVYLGAKDSTRTQINKVVRFDKLPGFGDSIEAQCGTSVNVHSSLRDILNQITKPNDVYSFSLASRLYAEERYPILPEYLQCVKELYRGGLEPINFQTAADQARELINSWVESQTNGIIRNVLQPSSVDSQTAMVLVNAIVFKGLWEKAFKDEDTQAMPFRVTEQESKPVQMMYQIGLFRVASMASEKMKILELPFASGTMSMLVLLPDEVSGLEQLESIINFEKLTEWTSSNVMEERKIKVYLPRMKMEEKYNLTSVLMAMGITDVFSSSANLSGISSAESLKISQAVHAAHAEINEAGREVVGSAEAGVDAASVSEEFRADHPFLFCIKHIATNAVLFFGRCVSP | – | produced IFN-γ | – | – | – | – | – | –
